The target of this assay is human uPAR on 293/uPAR cells (human) (UniProt Q03405). The assay is described as follows: cell-based or functional assay.
human uPAR on 293/uPAR cells (human), sequence (Q03405 23-305): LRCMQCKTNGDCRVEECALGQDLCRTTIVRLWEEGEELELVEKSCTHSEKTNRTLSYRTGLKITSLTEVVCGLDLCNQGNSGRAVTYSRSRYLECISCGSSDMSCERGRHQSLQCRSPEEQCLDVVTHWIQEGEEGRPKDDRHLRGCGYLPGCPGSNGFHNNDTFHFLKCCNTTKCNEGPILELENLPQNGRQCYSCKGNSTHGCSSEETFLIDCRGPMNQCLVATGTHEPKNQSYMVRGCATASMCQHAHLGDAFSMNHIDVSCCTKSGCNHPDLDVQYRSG

uPAR-lockV2 (SMB-GFD/hFc, disulphide-linked homodimer) (Fc fusion), sequence (chain): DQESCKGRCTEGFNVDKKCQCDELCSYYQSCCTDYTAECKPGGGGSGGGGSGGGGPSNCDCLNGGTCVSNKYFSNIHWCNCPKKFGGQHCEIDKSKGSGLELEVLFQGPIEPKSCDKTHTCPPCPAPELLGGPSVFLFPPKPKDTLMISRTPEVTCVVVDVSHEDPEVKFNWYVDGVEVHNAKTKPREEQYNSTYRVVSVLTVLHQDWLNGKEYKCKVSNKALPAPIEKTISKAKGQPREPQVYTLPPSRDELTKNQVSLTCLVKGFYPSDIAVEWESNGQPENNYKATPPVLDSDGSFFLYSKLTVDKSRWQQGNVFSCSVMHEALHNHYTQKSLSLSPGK

In the case of “uPAR-lockV2 (SMB-GFD/hFc, disulphide-linked homodimer) (Fc fusion)”, the IC50, inhibition of 293/uPAR cell adhesion to VN(1-66)/Fc^RAD (RTCA impedance) was 590 pM.

These data come from patent US20130280162A1.
